Reference: patent US7785631B2, “Solid dose delivery vehicle and methods of making same” (Quadrant Drug Delivery Limited, priority 1994, dated 2010)

Key:
Assay type in all cases: physicochemical
[1] = Exposure of dried phycoerythrin powder to organic solvents, fluorescence; conditions: freeze-dried powder
Method: A 400 μg/ml phycoerythrin solution was freeze-dried in a Labconco freeze-drier with or without 20% trehalose. The dried protein powder was exposed to a number of organic solvents for 72 hrs.

[2] = Storage of phycoerythrin dried in trehalose at 100° C.; conditions: stored at 100° C. for one month
Method: A 400 μg/ml phycoerythrin solution was freeze-dried in the FTS drier with or without 20% trehalose.

[3] = Alkaline phosphatase activity after drying and acetone exposure; conditions: dried with 50% trehalose versus dried without trehalose; with bovine serum albumin; FIG. 6B
Method: (§1) A 0.1 mg/ml horseradish peroxidase solution or a 1 mg/ml alkaline phosphatase/4 mg/ml bovine serum albumin solution was dried in an FTS Systems freeze drier with or without 50% trehalose. The drier was used as a vacuum drier and the mixtures dried without freezing. Four times the volume of solvent was added and the solution was allowed to evaporate to dryness. The contents were redissolved in 5 milliliters of water, and enzyme activity was assessed, in serial dilution, by commercial ‘kit’ reagents.

[4] = Horseradish peroxidase activity after drying and acetone exposure; conditions: dried with 50% trehalose versus dried without trehalose; FIG. 6A
Method: as §1

phycoerythrin
fluorescence after solvent exposure ([1]; acetone, 72 hrs): remained fluorescent
fluorescence after solvent exposure ([1]; acetonitrile, 72 hrs): remained fluorescent
fluorescence after solvent exposure ([1]; chloroform, 72 hrs): remained fluorescent
fluorescence after solvent exposure ([1]; dimethylsulfoxide (powder solubilized)): remained fluorescent
fluorescence after solvent exposure ([1]; methanol, 72 hrs): remained fluorescent
time remained fluorescent ([1]; pyridine): 24 to 48 h
fluorescence after solvent exposure ([1]; pyridine, by 72 hrs): lost fluorescence
loss of functional activity on storage [2]: no detectable loss of functional activity

alkaline phosphatase
resistance of enzyme activity to acetone [3]: more resistant to acetone

horseradish peroxidase
resistance of enzyme activity to acetone [4]: more resistant to acetone
